The text below walks through data of patent publication US20240067944A1 (published 2024).

Experiment [1] addresses human plasma-derived FX (Haematologic Technologies Inc, USA) (human) (UniProt P00742). Kind of experiment: cell-based or functional assay.
Experiment [2] deals with T1, human plasma-derived FX (Haematologic Technologies Inc, USA) (human, UniProt P00742 41-179; P00742 183-488). In words: cell-based or functional assay.
In experiment [3] the target is T1, human plasma-derived FX (Haematologic …). In words: SPR, FX captured on immobilised anti-GLA-FX antibody, steady state analysis, 25 C. The protocol:
Briefly, an anti-GLA-FX, prepared recombinantly as described above, was immobilised on a CM4 sensor chip or a Xantec HLC200M using standard amine coupling chemistry at pH 5. 10 nM FX (Haematologic Technologies, USA) was injected at a flow rate of 10 μL/min for 30 seconds. Subsequently 1000, 100, 10, 1, 0.1 and 0 nM of VHH polypeptide compound, according to Table 9, below were injected at a flow rate of 50 μL/min for 200 seconds to allow for binding to FX followed by a flow of 10 minutes with a running buffer (10 mM HEPES, 150 mM NaCl, 5 mM CaCl₂), 0.05% (v/v) Surfactant P20, 1 mg/mL bovine serum albumin, pH 7.4) injection allowing for dissociation from FX. The running buffer was also used for dilution of anti-FX VHH polypeptide compounds. Regeneration of the chip was achieved using a regeneration buffer consisting of 50 mM EDTA in running buffer, 30 seconds contact time, and a 30 μL/min flow rate. The binding data were collected at 25° C. and were analysed according to a 1:1 model using BiaEvaluation 4.1 supplied by the manufacturer (Biacore AB, Uppsala or Bruker Analyser).
(§1) Therefore, the reported KD values are determined based on steady state analysis.
(In general: Surface plasmon resonance follows binding to a sensor surface in real time, without labels.)

In experiment [4] the target is T2, Benefix (Pfizer Inc, USA), FIX (human, UniProt P00740 47-461).
T2 construct: Bought product; also called FIX (Benefix®)
T2 sequence (P00740 47-461 T194A limits assumed): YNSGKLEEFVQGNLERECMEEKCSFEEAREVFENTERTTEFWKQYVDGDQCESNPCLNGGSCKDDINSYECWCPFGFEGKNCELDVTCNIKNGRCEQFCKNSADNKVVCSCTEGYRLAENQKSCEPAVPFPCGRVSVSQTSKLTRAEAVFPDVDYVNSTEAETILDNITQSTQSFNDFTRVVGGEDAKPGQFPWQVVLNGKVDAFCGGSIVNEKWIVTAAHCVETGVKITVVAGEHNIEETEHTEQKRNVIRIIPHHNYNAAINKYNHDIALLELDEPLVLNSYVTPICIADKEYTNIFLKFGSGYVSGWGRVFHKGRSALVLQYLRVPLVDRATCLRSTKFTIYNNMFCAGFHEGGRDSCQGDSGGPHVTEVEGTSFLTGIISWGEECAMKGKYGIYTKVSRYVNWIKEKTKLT
In words: SPR, FIX (Benefix) captured on immobilised anti-GLA-FIX antibody, steady state analysis, 25 C. The protocol:
Briefly, anti-GLA-FIX, prepared recombinantly as described above, was immobilised on a CM4 sensor chip or a Xantec HLC200M using standard amine coupling chemistry at pH 5. FIX (10 nM) was injected at a flow rate of 10 μL/min for 1 minute. Subsequently 1000, 100, 10, 1, 0.1 and 0 nM of VHH polypeptide compound were injected at a flow rate of 30 μL/min for 4 minutes to allow for binding to the FIX (Benefix®) followed by a flow of 5 minutes running buffer (10 mM HEPES, 150 mM NaCl, 5 mM CaCl₂), 0.05% (v/v) Surfactant P20, 1 mg/mL bovine serum albumin, pH 7.4) injection allowing for dissociation from FIX. The running buffer was also used for dilution of anti-FIX VHH polypeptide compounds. Regeneration of the chip was achieved using a regeneration buffer consisting of 50 mM EDTA in running buffer, 30 seconds contact time, and a 30 μL/min flow rate. The binding data were collected at 25° C. and were analysed according to a 1:1 model using BiaEvaluation 4.1 supplied by the manufacturer (Biacore AB, Uppsala).
as §1

T1 sequence (P00742 41-179, chain 1 of 2): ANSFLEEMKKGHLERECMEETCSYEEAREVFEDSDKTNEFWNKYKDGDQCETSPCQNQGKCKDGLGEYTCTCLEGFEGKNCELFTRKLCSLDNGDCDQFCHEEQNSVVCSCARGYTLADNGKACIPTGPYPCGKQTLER
T1 sequence (P00742 183-488, chain 2 of 2): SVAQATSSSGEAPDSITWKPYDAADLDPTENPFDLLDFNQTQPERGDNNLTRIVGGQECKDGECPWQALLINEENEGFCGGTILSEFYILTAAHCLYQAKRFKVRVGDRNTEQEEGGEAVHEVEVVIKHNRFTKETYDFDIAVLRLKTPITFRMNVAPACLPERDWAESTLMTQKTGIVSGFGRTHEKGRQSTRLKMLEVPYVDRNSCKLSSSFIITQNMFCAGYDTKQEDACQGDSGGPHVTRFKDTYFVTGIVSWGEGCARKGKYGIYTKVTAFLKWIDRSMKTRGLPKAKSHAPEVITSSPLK
Sequence of human plasma-derived FX (Haematologic Technologies Inc, USA) (human) (P00742 41-179, chain 1 of 2): as the sequence (P00742 41-179, chain 1 of 2) above
Sequence of human plasma-derived FX (Haematologic Technologies Inc, USA) (human) (P00742 183-488, chain 2 of 2): as the sequence (P00742 183-488, chain 2 of 2) above

With “emicizumab sequence identical analogue (SIA) (bispecific antibody)”, in experiment [1], the KM (nM) of FX activation by 0.1 nM FIXa on phospholipid vesicles with 300 nM antibody came to 53.5 nM and the kcat/KM (1/(min * nM)) of FX activation by 0.1 nM FIXa with 300 nM antibody came to 500000 M⁻¹ s⁻¹.

B1: Cmpd #13 (anti-FX/anti-FIX(a) VHH polypeptide derivative) (bispecific antibody)
chain: DVQLVESGGGVVQPGGSLQLSCAASGGTKRRLAMGWFRQAPGQEREWVAAISRRGGSTNYADSVKGRFTISRDNSKNTVYLDMDDLRPEDTALYYCAADDSVGDGYLDYWGQGTLVTVSSGQAPGQEVQLVESGGGVVQPGGSLQLSCAASGRTFNIYTMSWFRQDPGQEREFVAGLRWTDSSTEYADSVKGRFTISRDNSKNTVYLQMDSLRPEDTALYYCAADRSFLFAQALGATKNYEYWGQGTLVTVSSGQACPC
modifications: C16 diacid protractor (P2) via linker LP1 on Cys4 and Cys6 in C-term extension (SEQ ID NO: 9)
notes: Single chain of two VHH: anti-FX (N-terminal) and anti-FIX(a) (C-terminal); also called VHH1.13-L1-2-VHH2.13-E
Take B1: the “KM (nM) of FX activation by 0.1 nM FIXa on phospholipid vesicles with 5 nM compound” value (“KM (nM) of FX activation … with 5 nM compound” below) in experiment [2] is 6.2 nM. Moreover, the “kcat/KM (1/(min * nM)) of FX activation by 0.1 nM FIXa with 5 nM compound” value (“kcat/KM (1/(min * nM)) … with 5 nM compound” for short) in experiment [2] turned out to be 3e+06 M⁻¹ s⁻¹. The Kd is 300 nM in experiment [3] and 2 nM in experiment [4].

B2: Cmpd #15 (anti-FX/anti-FIX(a) VHH polypeptide derivative) (bispecific antibody)
chain: DVQLVESGGGVVQPGGSLQLSCAASGGTKRRLAMGWFRQAPGQEREWVAAISRRGGSTNYADSVKGRFTISRDNSKNTVYLQMDSLRPEDTALYYCAADDSVGDGYLDYWGQGTLVTVSSGQAPGQEVQLVESGGGVVQPGGSLQLSCAASGRTFNIYTMSWFRQAPGQEREFVAGLRWTDSSTEYADSVKGRFTISRDNSKNTVYLQMDSLRPEDTALYYCAADRSFLFAQALGATKNYEYWGQGTLVTVSSGQACPC
modifications: C16 diacid protractor (P2) via linker LP1 on Cys4 and Cys6 in C-term extension (SEQ ID NO:9)
notes: Single chain of two VHH: anti-FX (N-terminal) and anti-FIX(a) (C-terminal); also called VHH1.15-L1-2-VHH2.15-E
On to B2, for which, in experiment [2], the “KM (nM) of FX activation … with 5 nM compound” value came out at 6.9 nM and the “kcat/KM (1/(min * nM)) … with 5 nM compound” value came out at 4.17e+06 M⁻¹ s⁻¹. This molecule returned a Kd in experiment [3] of 350 nM. In experiment [4], this molecule gave an equilibrium dissociation constant (Kd) of 3 nM.

B3: Cmpd #6 (anti-FX/anti-FIX(a) VHH polypeptide derivative) (bispecific antibody)
chain: DVQLVESGGGVVQPGGSLQLSCAASGRTHSRYAMGWFRQAPGQEREFVAAISRRGGSTNYADSVKGRFTISRDNSKNTVYLQMDSLRPEDTALYYCAADDSSGDGYLDYWGQGTLVTVSSGGGGSGGGSEVQLVESGGGVVQPGGSLQLSCAASGRTFNIYTMSWFRQAPGQEREFVAGLRWTDSSTEYADSVKGRFTISRDNSKNTVYLQMDSLRPEDTALYYCAADRSFLFAQALGATKNYEYWGQGTLVTVSSGGGGCSCHHHHHH
modifications: C16 diacid protractor (P2) via linker LP1 on Cys5 and Cys7 in C-term extension (SEQ ID NO: 8)
notes: Single chain of two VHH: anti-FX (N-terminal) and anti-FIX(a) (C-terminal)
As for B3, in experiment [2], the “KM (nM) of FX activation … with 5 nM compound” value worked out at 5.9 nM. The “kcat/KM (1/(min * nM)) … with 5 nM compound” value in experiment [2] was 5.5e+06 M⁻¹ s⁻¹. In addition, the results for the dissociation constant (Kd) in experiment [3] and in experiment [4] were 232 nM and 4.8 nM, respectively.

A word on the Kd: it is the concentration at which binding is half-saturated.
